From patent US20210002623A1 (CENTRE NATIONAL DE LA RECHERCHE SCIENTIFIQUE, published 2021)

Target: the molecule itself
Assay: self-assembly into a homododecamer; gel filtration and negative stain electron microscopy

B1: MjTET (TET aminopeptidase of Methanocaldococcus jannaschii, product of gene MJ0555) (enzyme)
chain: MSVVEYLKKLSKLHGISGREDSVREFMKKELEKYCDSVEIDNFGNLIAKRGNKGKKIMIAAHMDEIGLMVKYIDDNGFLKFTKIGGIYDPTILNQKVVVHGSKGDLIGVLGSKPPHRMKEEEKTKIIKYEDMFIDIGAESREEAIEMGVNIGTWVSFLSEVYDLGKNRLTGKAFDDRVGCAVLLEVMKRLSEEDIDCQVYAVGTVQEEVGLKGARVSAFKINPDVAIALDVTIAGDHPGIKKEDAPVDLGKGPVVGIVDASGRGLIAHPKVLDMIKAVSEKYKIDVQWEVGEGGTTDATAIHLTREGIPTGVISVPARYIHTPVEVIDKRDLEKTVELVYNCIKEVNNFF
notes: Untagged recombinant form made in E. coli; It forms a tetrahedral homododecamer; Activity assays were run with 0.1 mM CoCl2; also called MJ0555 protein; TET protein
  binding result: binds
